{
  "source": "patent US20040049009A1",
  "about": "“Methods for improving the antagonistic/agonistic properties of peptidic antagonists/agonists of the corticotropin-releasing factor receptor (crfr)” (published 2004)",
  "key": {"rat CRF receptor, type 1 [1]": {"biological_target": "T1, rat CRF receptor, type 1 (rat, UniProt P35353)", "assay": "SPA competition with 0.05 nM [125I-Tyr0]h/rCRF, HEK-293 membranes; 95% CI (0.06-0.51)"}, "rat CRF receptor, type 1 [2]": {"biological_target": "T1, rat CRF receptor, type 1", "assay": "SPA competition with 0.05 nM [125I-Tyr0]h/rCRF, HEK-293 membranes; 95% CI (0.15-0.49)"}},
  "note": "Ends that are not written are not given here.",
  "data": [
    {"binder": "QGPPISIDLSLELLRKMIEIARAEKEKQQAANNRLLLDTI (ends and bridges not checked)", "note": "[[Ala^21,23Arg^22]Svg]", "values": [
      {"measurement": "IC50", "setting": "rat CRF receptor, type 1 [1]", "value": 0.29, "unit": "nM"}
    ]},
    {"binder": "QGPPISIDLSLELLRKMIEIAKQEKEKQQAANNRLLLDTI (ends and bridges not checked)", "note": "[[Ala^21]Svg]", "values": [
      {"measurement": "IC50", "setting": "rat CRF receptor, type 1 [2]", "value": 0.32, "unit": "nM"}
    ]}
  ]
}
